This passage reports percent of ribosome particles in 100S dimers and stoichiometry N results from article PMC10522483.

This experiment has as its target S. lophii 70S ribosome (Spraguea lophii (endogenous in spores)). The experiment is described as follows: cryo-EM structure; electron cryo-tomography and subtomogram averaging of ribosomes in situ in polar tubes of spores germinated on the grid; dimer map 14.3 Å (C2 symmetry, 1,191 particles), half-dimer map 10.8 Å; single-particle atomic model fitted into the maps.

By stoichiometry N is commonly meant a count of units in the complex or per binding partner. Substance S. lophii 70S ribosome (complex) came in with a percent of ribosome particles in 100S dimers of 80% and a stoichiometry N of 2.
